*1 amine or outer side, *2 acyl side, *3 side chain or, on linkers, in order; H or OH if unused. Where a SMILES comes first, the peptide text is derived from it. Bridges are numbered along the chain shown (N, C = ends). Roman numbers before positions name the chains, in order. Where no end group is shown, it is not given here. [ ]: non-standard residue; d: D form. X1 = O=C(CCOCCOCCOCCOCCOCCOCCOCCOCCOCCOCCOCCOCCOCCOCCOCCOCCOCCOCCOCCOCCOCCC(=O)[*:2])[*:1]; CO(CH2CH2O)5CH2CH2CO = O=C(CCOCCOCCOCCOCCOCCC(=O)[*:2])[*:1]; Lys(Me2) = CN(C)CCCC[C@H](N)C(=O)O
B1: peptide 3 (peptide)
peptide: Ac-IVVTMPADLWDWIRK
modifications: not fully specified (C-terminus)
notes: analogue of peptide 2, K at position 15; made on Rink resin; a C-terminal amide is surmised; source: synthetic peptide
B2: peptide 15 (peptide)
peptide: Ac-IVATMPADLWDWIRA
modifications: not fully specified (C-terminus)
notes: analogue of peptide 2, A at position 3; made on Rink resin; a C-terminal amide is surmised; source: synthetic peptide
B3: peptide 4 (peptide)
peptide: Ac-IVVTMPADLWDWIAA
modifications: not fully specified (C-terminus)
notes: analogue of peptide 2, A at position 14; made on Rink resin; a C-terminal amide is surmised; source: synthetic peptide
B4: peptide 6 (peptide)
peptide: Ac-IVVTMPADLWDAIRA
notes: analogue of peptide 2, A at position 12; made on Rink resin; a C-terminal amide is surmised; also called W12A variant; source: synthetic peptide
B5: peptide 13 (peptide)
peptide: Ac-IVVTAPADLWDWIRA
modifications: not fully specified (C-terminus)
notes: analogue of peptide 2, A at position 5; made on Rink resin; a C-terminal amide is surmised; source: synthetic peptide
B6: peptide 18 (peptide)
peptide: Ac-IHVTMPADLWDWIRA
modifications: not fully specified (C-terminus)
notes: analogue of peptide 2, H at position 2; made on Rink resin; a C-terminal amide is surmised; also called V2H; source: synthetic peptide
B7: peptide 14 (peptide)
peptide: Ac-IVVAMPADLWDWIRA
modifications: not fully specified (C-terminus)
notes: analogue of peptide 2, A at position 4; made on Rink resin; a C-terminal amide is surmised; source: synthetic peptide
B8: peptide 5 (peptide)
peptide: Ac-IVVTMPADLWDWARA
modifications: not fully specified (C-terminus)
notes: analogue of peptide 2, A at position 13; made on Rink resin; a C-terminal amide is surmised; source: synthetic peptide
B9: peptide 9 (peptide)
peptide: Ac-IVVTMPADAWDWIRA
modifications: not fully specified (C-terminus)
notes: analogue of peptide 2, A at position 9; made on Rink resin; a C-terminal amide is surmised; source: synthetic peptide
B10: peptide 17 (peptide)
peptide: Ac-AVVTMPADLWDWIRA
modifications: not fully specified (C-terminus)
notes: analogue of peptide 2, A at position 1; made on Rink resin; a C-terminal amide is surmised; source: synthetic peptide
B11: peptide 20 (peptide)
peptide: Ac-IRVTMPADLWDWIRA
modifications: not fully specified (C-terminus)
notes: analogue of peptide 2, R at position 2; made on Rink resin; a C-terminal amide is surmised; source: synthetic peptide
B12: peptide 12 (peptide)
peptide: Ac-IVVTMAADLWDWIRA
modifications: not fully specified (C-terminus)
notes: analogue of peptide 2, A at position 6; made on Rink resin; a C-terminal amide is surmised; source: synthetic peptide
B13: peptide 27 (peptide)
peptide: Ac-IVVTMPADLWDWIMA
modifications: not fully specified (C-terminus)
notes: analogue of peptide 2, M at position 14; made on Rink resin; a C-terminal amide is surmised; source: synthetic peptide
B14: peptide 10 (peptide)
peptide: Ac-IVVTMPAALWDWIRA
modifications: not fully specified (C-terminus)
notes: analogue of peptide 2, A at position 8; made on Rink resin; a C-terminal amide is surmised; source: synthetic peptide
B15: peptide 28 (peptide)
peptide: Ac-IVVTMPADLWDWINA
modifications: not fully specified (C-terminus)
notes: analogue of peptide 2, N at position 14; made on Rink resin; a C-terminal amide is surmised; source: synthetic peptide
B16: peptide 22 (peptide)
peptide: Ac-IWVTMPADLWDWIRA
modifications: not fully specified (C-terminus)
notes: analogue of peptide 2, W at position 2; made on Rink resin; a C-terminal amide is surmised; source: synthetic peptide
B17: peptide 23 (peptide)
peptide: Ac-IYVTMPADLWDWIRA
modifications: not fully specified (C-terminus)
notes: analogue of peptide 2, Y at position 2; made on Rink resin; a C-terminal amide is surmised; source: synthetic peptide
B18: peptide 8 (peptide)
peptide: Ac-IVVTMPADLADWIRA
modifications: not fully specified (C-terminus)
notes: analogue of peptide 2, A at position 10; made on Rink resin; a C-terminal amide is surmised; source: synthetic peptide
B19: peptide 16 (peptide)
peptide: Ac-IAVTMPADLWDWIRA
modifications: not fully specified (C-terminus)
notes: analogue of peptide 2, A at position 2; made on Rink resin; a C-terminal amide is surmised; source: synthetic peptide
B20: peptide 7 (peptide)
peptide: Ac-IVVTMPADLWAWIRA
modifications: not fully specified (C-terminus)
notes: analogue of peptide 2, A at position 11; made on Rink resin; a C-terminal amide is surmised; source: synthetic peptide
B21: peptide 21 (peptide)
peptide: Ac-ITVTMPADLWDWIRA
modifications: not fully specified (C-terminus)
notes: analogue of peptide 2, T at position 2; made on Rink resin; a C-terminal amide is surmised; also called V2T; source: synthetic peptide
B22: peptide 19 (peptide)
peptide: Ac-IQVTMPADLWDWIRA
modifications: not fully specified (C-terminus)
notes: analogue of peptide 2, Q at position 2; made on Rink resin; a C-terminal amide is surmised; source: synthetic peptide
B23: peptide 2 (peptide)
peptide: Ac-IVVTMPADLWDWIRA
modifications: not fully specified (C-terminus)
notes: analogue of peptide 1 with lysine to arginine at position 14; parent of the alanine scan; made on Rink resin; a C-terminal amide is surmised; source: synthetic peptide

How the values were obtained:
[1] = target: T1, human IL-17A (Homo sapiens, UniProt Q16552); assay: BJ human fibroblast cell assay, IL-17A stimulated GRO-α production; format: cell-based; conditions: BJ human fibroblast cells, 1 ng/ml human IL-17A
T1 construct: host or cells: added to BJ human fibroblasts (ATCC CRL2522)
Description: For inhibitor screen, human BJ fibroblast cells (ATCC CRL2522) (American Type Culture Collection, VA) were used. For mouse cell based assay MLE-12 mouse epithelial cells (ATCC CRL2110) were used. Both cell lines were maintained in ATCC recommended media.

[2] = target: T2, biotinylated recombinant human IL-17A (rhIL-17, R&D Systems #317-ILB) (human, UniProt Q16552 24-155, biotinylated); conditions: both partners purified
T2 construct: IL-17A, human, recombinant; also called Biotinylated IL-17A; source: bought: R&D Systems
T2 sequence (Q16552 24-155): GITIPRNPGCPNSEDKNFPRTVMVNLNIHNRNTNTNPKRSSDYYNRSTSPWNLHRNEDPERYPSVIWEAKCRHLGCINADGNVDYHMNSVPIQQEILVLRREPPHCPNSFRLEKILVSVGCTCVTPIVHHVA

T1 sequence (Q16552 24-155): as above

Molecule | IC50 [1] [nM] | IC50 [2] [nM]
CC[C@H](C)[C@H](NC(C)=O)C(=O)N[C@H](C(=O)N[C@H](C(=O)N[C@@H](CCCCNC(=O)CCOCCOCCOCCOCCOCCOCCOCCOCCOCCOCCOCCOCCOCCOCCOCCOCCOCCOCCOCCOCCOCCC(=O)NCCCC[C@H](NC(=O)[C@@H](NC(=O)[C@@H](NC(=O)[C@@H](NC(C)=O)[C@@H](C)CC)[C@@H](C)O)C(C)C)C(=O)N[C@H](C(=O)N1CCC[C@H]1C(=O)N[C@@H](C)C(=O)N[C@@H](CC(=O)O)C(=O)N[C@@H](CC(C)C)C(=O)N[C@@H](Cc1c[nH]c2ccccc12)C(=O)N[C@@H](CC(=O)O)C(=O)N[C@@H](Cc1c[nH]c2ccccc12)C(=O)N[C@H](C(=O)N[C@@H](CC(N)=O)C(=O)N[C@@H](CCCCN(C)C)C(N)=O)[C@@H](C)CC)[C@@H](C)CC)C(=O)N[C@H](C(=O)N1CCC[C@H]1C(=O)N[C@@H](C)C(=O)N[C@@H](CC(=O)O)C(=O)N[C@@H](CC(C)C)C(=O)N[C@@H](Cc1c[nH]c2ccccc12)C(=O)N[C@@H](CC(=O)O)C(=O)N[C@@H](Cc1c[nH]c2ccccc12)C(=O)N[C@H](C(=O)N[C@@H](CC(N)=O)C(=O)N[C@@H](CCCCN(C)C)C(N)=O)[C@@H](C)CC)[C@@H](C)CC)C(C)C)[C@@H](C)O [Compound 41] (I: Ac-ITVKIPADLWDWIN[Lys(Me2)]-NH2 / II: Ac-ITVKIPADLWDWIN[Lys(Me2)]-NH2; linker I:4-II:4 via X1) | 15 | –
CC[C@H](C)[C@H](NC(C)=O)C(=O)N[C@@H](Cc1c[nH]cn1)C(=O)N[C@H](C(=O)N[C@H](C(=O)N[C@H](C(=O)N1CCC[C@H]1C(=O)N[C@@H](C)C(=O)N[C@@H](CC(=O)O)C(=O)N[C@@H](CC(C)C)C(=O)N[C@@H](Cc1c[nH]c2ccccc12)C(=O)N[C@@H](CC(=O)O)C(=O)N[C@@H](Cc1c[nH]c2ccccc12)C(=O)N[C@H](C(=O)N[C@@H](CC(N)=O)C(N)=O)[C@@H](C)CC)[C@@H](C)CC)[C@@H](C)O)C(C)C [Compound 35] | 12 | –
Ac-IHVTIPADLWDWI-NH2 [Compound 36] | 183 | –
Ac-TIPADLWDWINK-NH2 [Compound 34] | > 1000 | –
CC[C@H](C)[C@H](NC(C)=O)C(=O)N[C@H](C(=O)N[C@H](C(=O)N[C@H](C(=O)N[C@H](C(=O)N1CCC[C@H]1C(=O)N[C@@H](CCCCNC(=O)CCOCCOCCOCCOCCOCCC(=O)NCCCC[C@H](NC(=O)[C@@H]1CCCN1C(=O)[C@@H](NC(=O)[C@@H](NC(=O)[C@@H](NC(=O)[C@@H](NC(=O)[C@@H](NC(C)=O)[C@@H](C)CC)[C@@H](C)O)C(C)C)[C@@H](C)O)[C@@H](C)CC)C(=O)N[C@@H](CC(=O)O)C(=O)N[C@@H](CC(C)C)C(=O)N[C@@H](Cc1c[nH]c2ccccc12)C(=O)N[C@@H](CC(=O)O)C(=O)N[C@@H](Cc1c[nH]c2ccccc12)C(=O)N[C@H](C(=O)N[C@@H](CC(N)=O)C(=O)N[C@@H](CCCCN(C)C)C(N)=O)[C@@H](C)CC)C(=O)N[C@@H](CC(=O)O)C(=O)N[C@@H](CC(C)C)C(=O)N[C@@H](Cc1c[nH]c2ccccc12)C(=O)N[C@@H](CC(=O)O)C(=O)N[C@@H](Cc1c[nH]c2ccccc12)C(=O)N[C@H](C(=O)N[C@@H](CC(N)=O)C(=O)N[C@@H](CCCCN(C)C)C(N)=O)[C@@H](C)CC)[C@@H](C)CC)[C@@H](C)O)C(C)C)[C@@H](C)O [Compound 42] (I: Ac-ITVTIPKDLWDWIN[Lys(Me2)]-NH2 / II: Ac-ITVTIPKDLWDWIN[Lys(Me2)]-NH2; linker I:7-II:7 via CO(CH2CH2O)5CH2CH2CO) | 24 | –
CC[C@H](C)[C@H](NC(C)=O)C(=O)N[C@H](C(=O)N[C@H](C(=O)N[C@H](C(=O)N[C@H](C(=O)N1CCC[C@H]1C(=O)N[C@@H](C)C(=O)N[C@@H](CC(=O)O)C(=O)N[C@@H](CC(C)C)C(=O)N[C@@H](Cc1c[nH]c2ccccc12)C(=O)N[C@@H](CC(=O)O)C(=O)N[C@@H](Cc1c[nH]c2ccccc12)C(=O)N[C@H](C(=O)N[C@@H](CC(N)=O)C(=O)N[C@@H](CCCCN(C)C)C(=O)N[C@@H](CCCCNC(=O)CCOCCOCCOCCOCCOCCC(=O)NCCCC[C@H](NC(=O)[C@H](CCCCN(C)C)NC(=O)[C@H](CC(N)=O)NC(=O)[C@@H](NC(=O)[C@H](Cc1c[nH]c2ccccc12)NC(=O)[C@H](CC(=O)O)NC(=O)[C@H](Cc1c[nH]c2ccccc12)NC(=O)[C@H](CC(C)C)NC(=O)[C@H](CC(=O)O)NC(=O)[C@H](C)NC(=O)[C@@H]1CCCN1C(=O)[C@@H](NC(=O)[C@@H](NC(=O)[C@@H](NC(=O)[C@@H](NC(=O)[C@@H](NC(C)=O)[C@@H](C)CC)[C@@H](C)O)C(C)C)[C@@H](C)O)[C@@H](C)CC)[C@@H](C)CC)C(N)=O)C(N)=O)[C@@H](C)CC)[C@@H](C)CC)[C@@H](C)O)C(C)C)[C@@H](C)O [Compound 46] (I: Ac-ITVTIPADLWDWIN[Lys(Me2)]K-NH2 / II: Ac-ITVTIPADLWDWIN[Lys(Me2)]K-NH2; linker I:16-II:16 via CO(CH2CH2O)5CH2CH2CO) | 582 | –
B1 | – | 66
B2 | – | 5720
B3 | – | 172
B4 | – | 7450
B5 | – | 11
B6 | – | 45
B7 | – | 195
B8 | – | 402
B9 | – | 640
B10 | – | 167
B11 | – | 117
B12 | – | 2650
B13 | – | 31
B14 | – | 4020
B15 | – | 26
B16 | – | 522
B17 | – | 64
B18 | – | 524
B19 | – | 149
B20 | – | 474
B21 | – | 31
B22 | – | 71
B23 | – | 80

Source: paper PMC4869123 (Scientific Reports, 2016)
